Target: T1, Recombinant human EGFR-Fc Chimera (R&D Systems, catalog no. 344-ER-050) (human, UniProt P00533 25-645)
T1 construct: range 1-645; Bought reagent; Immobilised on the CM5 chip for SPR; also called hEGFR-Fc; not shown: Fc region of human IgG1, fused at the C-terminus
Assay: SPR (Biacore) on immobilised hEGFR-Fc

B1: Affilin 138838 (designed binder)
chain: MQIFVYTNTGKTITLEVEPSDTIENVKAKIQDKEGIPPDQQRLIWAGKQLEDGRTLSDYNIRNPDILHLVLRLRAAGIGMQIFVHTITGKTITLEVEPSDTIENVKAKIQDKEGIPPDQQRLIWAGKQLEDGRTLSDYNIEGERDLHLVLRLRAA
notes: Affilin of two ubiquitin moieties with PDI motif
Kd: 615 nM

From US20180030098A1 (NAVIGO PROTEINS, published 2018)
